# Data reported in the DeepSol protein solubility set.
# Experiment: soluble on expression in E. coli; label from the status in PepcDB or PDB records
row,Sequence,soluble on expression in E. coli
1,MFGKGENLAATDYQMVRHPDIHQAQCLYQTFRDKAVCLTGGDFTGRVIVCQHHGCGIVIQGAFNHFPGMDFRAVDGAGEEGFTGNQLILVIQIQHPELFTLQSRHVQNQPFPCRTGGGEGHAGFMKMAVQGFQGPQNETALAGRHFSGQKGNLLHCSCPLSVNNAHNGAAFRMLQGVIPQTVIMNRHGITLRTAGVMTVRHQTGGNAGGFRAHFSAVTVHDVKQHPCFVIIVIRFGCHKCATVVQGVQIPDTTAVVFIQTVHPAEDPGLQGHPLWNEAKMLRPEADALFIRDYGGNQLLQASLRCTGRRGGVLRQCFHV,not soluble
2,MKTIGILGGMGPLATAELFRRIVIKTPAKRDQEHPKVIIFNNPQIPDRTAYILGKGEDPRPQLIWTAKRLEECGADFIIMPCNTAHAFVEDIRKAIKIPIISMIEETAKKVKELGFKKAGLLATTGTIVSGVYEKEFSKYGVEIMTPTEDEQKDVMRGIYEGVKAGNLKLGRELLLKTAKILEERGAECIIAGCTEVSVVLKQDDLKVPLIDPMDVIAEVAVKVALEK,soluble
3,MESILITGASGFIGSFIVEEALKRKFGVWAGIRPTSSKKYLKNRKIHFLELDFAHPNELRAQLSGHKGTYNKFDYIIHCAGVTKCPDKNTFDYVNYLQTKYFIDTLKALNMVPKQFIYISTLSVFGPVREKDYSPIEAGDVPMPNTAYGLSKLKAELYIQSIPGFPYVIYRPTGVYGPRELDYFLMAKSIRQHVDFSVGFRRQDLTFVYVKDIVQAIFLGIEKKVTRRAYFLTDGKVYNSRVFSDLIQKELGNPFVIHVKCPLIVLKVISLLAEFIATRSGKSSTLNSDKYKIMKQRNWQCDITPAINELGYAPEYDLEKGVRETIDWYKNEGWL,not soluble
4,MKIGIIGATGKAGSRILKEALDRGHEVTAIVRNAAKITEENVKVLEKDVFSLTSNDLQAFDVVVNAFGAPAGHDHLHVDAGNVLIEAMKGAPNTKLVVVGGAGSLFVDEEKTTRVFETPGFPEEYLATAQNQGKNLEILQQTNDITWTFISPSALFALGKRTGSYKAGKDNLLVNAKGDSYVSYEDFAVAALDEIENPKHVNERFTVVSEAELEHHHHHH,soluble
5,MAGRLREMRCELSFLKNADGSACFSQGATCIWASCSGPGDVHASKASDEAMTLDISYRANCGDNKFNVLNNIIHSTLSNAINLELFPHTTISVTVHGIQDDGSMGAVAINGACFALLDNGMPFETVFCGVLIVRVKDELIIDPTAKQEAASTGRVLFSVCKGSDGHPEVCAMDAIGHWDFIQLEAAWSLAQPSASAIFDFYKTVMKRKLSVDEQLEHHHHHH,soluble
6,EVKVEESGGGLVQPGGSMKLSCVASGFTFSNYWMEWVRQSPEKGLEWVAEIRLKSNNYATHYAESVKGRFTISRDDSKSSVYLQMNNLRAEDTGIYYCTRGGAVGAMDYWGQGTSVTVSSATTTAPSVYPLVPGCSDTSGSSVTLGCLVKGYFPEPVTVKWNYGALSSGVRTVSSVLQSGFYSLSSLVTVPSSTWPSQTVICNVAHPASKVDLIKEPSGP,soluble
7,MGSSHHHHHHSSGRENLYFQGSPVEKYNFKAEVNKVMDIIVNSLYTDKDVFLRELISNASDACDKKRIILENNKLIKDAEVVTNEEIKNETEKEKTENVNESTDKKENVEEEKNDIKKLIIKIKPDKEKKTLTITDNGIGMDKSELINNLGTIAQSGTAKFLKQIEEGKADSNLIGQFGVGFYSSFLVSNRVEVYTKKEDQIYRWSSDLKGSFSVNEIKKYDQEYDDIKGSGTKIILHLKEECDEYLEDYKLKELIKKYSEFIKFPIEIWSE,soluble
8,MKAILQRSIALLALAAGMSSVACADEVKMRVLGWYGNQPQSQQVERPFWKDLPKRSNGAFSANFRTIDELGLKGFESLRTLQSGAFDVVSFQISFVGGDAPVLMGADLPGAAFDFDQLQKNLDAYRPILEKELNDRFKAKLLTAWSFPFQILYCKGDIKTLDDLKGKKVRVSGTYTAKMVADLNAAGATLAGPEVYQGLMQGVVDCAITGSQYGNSNDWFEVAHSLSPIPLGGAGVVLQVARNAFWDKLSADQQAALSAEMKQLETALWDISRKGHEDGINCNVGKQPCTGKPGKMQLVEPTEADVREVKQLLKTSIVPMWIEDCSKFSKTCGDDWFRTIGAAAGIARLEHHHHHH,not soluble
9,MTMDTAQLKSQIQQYLVESGNYELISNELKARLLQEGWVDKVKDLTKSEMNINESTNFTQILSTVEPKALEMVSDSTRETVLKQIREFLEEIVDTQ,soluble
10,GPGSMLHDAPWHLSLAHRCLAPHGVVAIMGYATRVCVVAPEAARRDADDFMEDLQRTAREAAKMKDSKELRVALGRAIDISSSLDAGHADMYFPFRSTKRRWFTSEYAATPAQLAASYRALPEYQLLSREMPRYRQALISGRQKVQVGEETEKDEPVNVFRRQHGAEPLEVLQGCLQAQVMSLHGRNTPAMPPLRVQVRHFIITCSSRSVNAASEPFQLRSLRREIPQLK,not soluble
11,SVAADSAATESLGRIGSLSQVSGVLGCQWGDEGKGKLVDILAQHFDIVARCQGGANAGHTIYNSEGKKFALHLVPSGILNEDTTCVIGNGVVVHLPGLFKEIDGLESNGVSCKGRILVSDRAHLLFDFHQEVDGLRESELAKSFIGTTKRGIGPAYSSKVIRNGIRVGDLRHMDTLPQKLDLLLSDAAARFQGFKYTPEMLREEVEAYKRYADRLEPYITDTVHFINDSISQKKKVLVEGGQATMLDIDFGTYPFVTSSSPSAGGICTGLGIAPSVVGDLIGVVKAYTTRVGSGPFPTENLGTGGDLLRLAGQEFGTTTGRPRRCGWLDIVALKFSCQINGFASLNLTKLDVLSDLNEIQLGVAYKRSDGTPVKSFPGDLRLLEELHVEYEVLPGWKSDISSVRNYSDLPKAAQQYVERIEELVGVPIHYIGIGPGRDALIYK,soluble
12,MGSDKIHHHHHHMNIQSIEPTPSPNTMKLTLDQTLPQGKSNNYTLKNKEEAPPFIQKLFEIEGVKGVYHVADFLAIERNAKVDWKVILPKVRAVFGDETGDGPQKEKPEVQEGYGEVQVFLQLFKGIPMQIKLSNGEEEVREGLPERFANAAFAAQQPDDNVVLERKWVEQGVRYGELADVAKDVAEEVSAAFSQERLDRLVNIAKGLVDKTQEQTEERFRKVTLADMEQDDWRDRYAALDKMDPTEEDLPVLEKALQDEKASIRRLATVYLGMIEKPVVLPLLEKALKDPSVTVRRTAGDCMSDIGDPAAIPAMIEALKDKNKLVRWRAAMFLYEVGDETAIDALRLAEDDPEFEVAMQVKMALERIVGGEEAKGSVWKQMTEEMAKGKNE,not soluble
13,MGSDKIHHHHHHKDPVINDLKDSEGNNISFTLNAPNNSSYTLMPENASSIIDIFTCEQPDYGFAAGVTYTVQVCEGGTEFEKFESLPTTGSGEKVLIKTFELNDAMNNLGMVNPTVAYNVDFRLKAFINDSVPELYSNTVNMAITPYSGARTQVYFVGDIFDNGWNNNDPSMRIFADDDVNNMLFTYTGFVKAGSAFKIIQTPGDWGIQWGYDSDGALSNDGGSGNIEGFTQDGYYTITLDLAGNKYSIEPYTGATTEYKQISLIGDFNDWGGDLDLQQASYDKHIWIGEKIEIPSDGGLKLRADHDWAVSFGGSNSLWNDKQGQFAKFDGGDNVKVSAGTYFIKFNDLTKHIILLAE,not soluble
14,MGSDKIHHHHHHMYLESIELYSNITKAAAHLFISQPYLSKVIKQLENELEIKLIQSQGHQTFLTYAGQRYLFYLKEIDMIERQMAKELYLIRSDKKGEITLGINSGLASSILANVLPKFNLEHPEISVKLLENNQNISEQLVASGDIDLAVGMAPILYKDGIASTTIYRDELFLMIPTTSQLYNAEKRGQIIPFEYPISVLDNEPLILTPLEYGIGKTIAQFYELHHMSLNQMITTSTVPTAASLSLSGMGATFVPQTLIHRYLDKECNVYHFHKNKLFSEYIMIYKKDVELSGIALLLYKAFLTK,not soluble
15,MLTIEPPSATFPASGGSSTHTITSVNESRMAFKVKSSNNEHYRVRPVYGFVEARGKMKFEIIRLEGPVKDDKIMLQYAEVPADETDAQAPFKAGAQQGDVTILLKTN,not soluble
